This note sets out measurements from paper PMC7092895 (Biochemical and Biophysical Research Communications, 2005).

Assay in all cases: ELISA
On the technique in general: ELISA stands for enzyme-linked immunosorbent assay.

The target of one test is interleukin 6 (IL-6) (Homo sapiens (assumed; ), UniProt P05231).
For test [1], the target named is recombinant SARS-CoV nucleocapsid protein (SCoV-N), His6-tagged (SARS-CoV, strain CUHK-W1, UniProt P59595).
The target in test [2] is recombinant interleukin 11 (IL-11) (Homo sapiens (assumed; ), UniProt P20809).
Chain of recombinant interleukin 11 (IL-11) (P20809 22-199): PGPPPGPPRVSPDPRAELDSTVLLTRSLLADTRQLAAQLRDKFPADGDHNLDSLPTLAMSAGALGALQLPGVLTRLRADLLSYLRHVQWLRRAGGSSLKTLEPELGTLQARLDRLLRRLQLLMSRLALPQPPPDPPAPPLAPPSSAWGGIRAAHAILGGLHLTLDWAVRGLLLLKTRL

Chain of recombinant SARS-CoV nucleocapsid protein (SCoV-N), His6-tagged (P59595 whole entry): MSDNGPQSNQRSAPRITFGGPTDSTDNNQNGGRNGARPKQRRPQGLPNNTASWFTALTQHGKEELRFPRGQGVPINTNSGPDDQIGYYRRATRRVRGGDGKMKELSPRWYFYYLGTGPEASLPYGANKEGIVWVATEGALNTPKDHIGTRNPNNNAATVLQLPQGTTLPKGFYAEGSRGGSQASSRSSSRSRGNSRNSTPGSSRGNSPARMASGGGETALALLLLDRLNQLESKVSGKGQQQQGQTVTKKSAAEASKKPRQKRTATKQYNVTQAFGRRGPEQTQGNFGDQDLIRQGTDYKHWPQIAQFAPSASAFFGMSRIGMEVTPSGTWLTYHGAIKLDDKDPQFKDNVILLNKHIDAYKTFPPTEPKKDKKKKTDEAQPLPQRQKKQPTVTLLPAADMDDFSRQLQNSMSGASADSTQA
Chain of interleukin 6 (IL-6) (P05231 30-212): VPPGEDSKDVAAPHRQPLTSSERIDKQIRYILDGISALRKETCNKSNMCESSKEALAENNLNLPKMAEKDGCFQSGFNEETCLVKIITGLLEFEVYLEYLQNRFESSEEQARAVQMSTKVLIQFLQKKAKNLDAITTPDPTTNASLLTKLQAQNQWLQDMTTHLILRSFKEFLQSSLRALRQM

B1: anti-N scFv L9N01 (scFv-phage clone) (scFv, V domains shown)
VH: GEAAAVQGTEVVKPGASVKLSCKASGYIFTSYDIDWVRQTPEQGLEWIGWIFPGEGSTEYNEKFKGRATLSVDKSSSTAYMELTRLTSEDSAVYFCARGDYYRRYFDLWGQGTTVTVSS
VL: DIELTQSPAIMSASPGERVTMTCSASSSIRYIYWYQQKPGSSPRLLIYDTSNVAPGVPFRFSGSGSGTSYSLTINGMEAEDAATYYCQEWSGYPYTFGGGTKLELK
Regarding B1, the binding result with interleukin 6 (IL-6) was “no binding”; in test [1], “binds”; in test [2], “binds”.
